Source: publication PMC7243271
Read-outs that look alike come from different tables or passages of the source.

Legend:
Assay in all cases: SEC-MALS
[1] = target: Nup358-KLC2-fusion protein (human | mouse) (UniProt P49792)
[2] = target: Nup358/W2224A/D2225A-KLC2-fusion protein (human | mouse) (UniProt P49792)
[3] = target: Nup358-min (residues 2147–2240 of human Nup358) (human) (UniProt P49792)
[4] = target: Nup358-KLC2-fusion protein (human | mouse) (UniProt P49792); remark: listed apart in the source

- stoichiometry N [1]: 1
- stoichiometry N [2]: 1
- stoichiometry N [3]: 1
- stoichiometry N [4]: 1
Substance: BicD2-CTD (residues 715–804 of human BicD2) (domain or fragment)
